The source of these data is patent US6632625 (MERCK, dated 2003).

The target of this assay is T1, recombinant human leptin (human, UniProt P41159 22-167, 125I label on the tracer form (125I-leptin, NEN); position not stated).
T1 construct: also called recombinant leptin; 125I-leptin
Kind of assay: 125I-leptin binding on transfected COS cells.

T1 sequence (P41159 22-167 limits assumed): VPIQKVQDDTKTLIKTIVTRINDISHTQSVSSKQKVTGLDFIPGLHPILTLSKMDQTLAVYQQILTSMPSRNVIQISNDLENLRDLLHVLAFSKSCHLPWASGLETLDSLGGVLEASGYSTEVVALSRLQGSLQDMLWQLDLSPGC

B1: substitution mutant (420-496)TO(500-632) of the human OB-R (receptor)
chain: FNLSYPITPWRFKLSCMPPNSTYDYFLLPAGLSKNTSNSNGHYETAVEPKFNSSGTHFSNLSKTTFHCCFRSEQDRNCSLCADNIEGKTFVSTVNSLVFQQIDANWNIQCWLKGDLKLFICYVESLFKNLFRNYNYKVHLLYVLPEVLEDSPLVPQKGSFQMVHCNCSVHECCECLVPVPTAKLNDTLLMCLKITSGGVIFQSPLMSVQPINMVKPDPPLGLHMEITDDGNLKISWSSPPLVPFPLQYQVKYSENSTTVIREADKIVSATSLLVDSILPGSSYEVQVRGKRLDGPGIWSDWSTPRVFTTQDVIYFPPKILTSVGSNVSFHCIYKKENKIVPSKEIVWWMNLAEKIPQSQYDVVSDHVSKVTFFNLNETKPRGKFTYDAVYCCNEHECHFQPIFLLSGYTMWIRINHSLGSLDSPPTCVLPDSVVKPLPPSSVKAEITINIGLLKISWEKPVFPENNLQFQIRYGLSGKEVQWKMYEVYDAKSKSVSLPVPDLCAVYAVQVRCKRLDGLGYWSNWSNPAYTVECIFQPIFLLSGYTMWIRINHSLGSLDSPPTCVLPDSVVKPLPPSSVKAEITINIGLLKISWEKPVFPENNLQFQIRYGLSGKEVQWKMYEVYDAKSKSVSLPVPDLCAVYAVQVRCKRLDGLGYWSNWSNPAYTVVMDIKVPMRGPEFWRIINGDTMKKEKNVTLLWKPLMKNDSLCSVQRYVINHHTSCNGTWSEDVGNHTKFTFLWTEQAHTVTVLAINSIGASVANFNLTFSWPMSKVNIVQSLSAYPLNSSCVIVSWILSPSDYKLMYFIIEWKNLNEDGEIKWLRISSSVKKYYIHDHFIPIEKYQFSLYPIFMEGVGKPKIINSFTQDDIEKHQSDAGLYVIVPVIISSSILLLGTLLISHQRMKKLFWEDVPNPKNCSWAQGLNFQKPETFEHLFIKHTASVTCGPLLLEPETISEDISVDTSWKNKDEMMPTTVVSLLSTTDLEKGSVCISDQFNSVNFSEAEGTEVTYEAESQRQPFVKYATLISNSKPSETGEEQGLINSSVTKCFSSKNSPLKDSFSNSSWEIEAQAFFILSDQHPNIISPHLTFSEGLDELLKLEGNFPEENNDKKSIYYLGVTSIKKRESGVLLTDKSRVSCPFPAPCLFTDIRVLQDSCSHFVENNINLGTSSKKTFASYMPQFQTCSTQTHKIMENKMCDLTV
Regarding B1, the binding result is listed as “no binding (tested: 0.2 nM)”.
